{"source": "patent US20220280636A1", "about": "(Merck Sharp & Dohme, published 2022)", "binders": {"B1": {"name": "gE-2t 417 (other)", "chain": "AAPRTSWKRVTSGEDVVLLPAPAGPEERTRAHKLLWAAEPLDACGPLRPSWVALWPPRRVLETVVDAACMRAPEPLAIAYSPPFPAGDEGLYSELAWRDRVAVVNESLVIYGALETDSGLYTLSVVGLSDEARQVASVVLVVEPAPVPTPTPDDYDEEDDAGVSERTPVSVPPPTPPRRPPVAPPTHPRVIPEVSHVRGVTVHMETPEAILFAPGETFGTNVSIHAIAHDDGPYAMDVVWMRFDVPSSCAEMRIYEACLYHPQLPECLSPADAPCAVSSWAYRLAVRSYAGCSRTTPPPRCFAEARMEPVPGLAWLASTVNLEFQHASPQHAGLYLCVVYVDDHIHAWGHMTISTAAQYRNAVVEQHLPQRQPEPVEPTRPHVRAPPPAPSARGPLR", "notes": "Monomer, mammalian expression; also called gE-2t 417 WT; gE-2t 417 wild type; not shown: glycine linker and thrombin-cleavable 6-Histidine tag"}}, "key": {"gI-2t 262": {"biological_target": "T1, gI-2t 262 (HSV-2, UniProt P06764 21-262)", "T1 construct": "Partner of gE-2t 417 in the SEC-MALS analysis of complex formation; also called soluble gI-2; not shown: glycine linker and thrombin-cleavable 6-Histidine tag", "experiment": "SEC-MALS of the gE-2t 417 / gI-2t 262 heterodimer complex"}, "human IgG Fc": {"biological_target": "T2, human IgG Fc (human)", "T2 construct": "domain: Fc; Immobilised partner in SPR; also called human IgG Fc domain", "experiment": "SPR; IgG amine coupled to CM5 chip, construct flowed at 750 ug/ml; end-point RU of association phase"}, "human whole molecule IgG": {"biological_target": "T3, human whole molecule IgG (human)", "T3 construct": "Immobilised partner in SPR; also called Human IgG; Human IgG Whole Molecule", "experiment": "SPR; IgG amine coupled to CM5 chip, construct flowed at 750 ug/ml; end-point RU of association phase"}, "mouse whole molecule IgG": {"biological_target": "T4, mouse whole molecule IgG (mouse)", "T4 construct": "Immobilised partner in SPR; also called Mouse IgG", "experiment": "SPR; IgG amine coupled to CM5 chip, construct flowed at 750 ug/ml; end-point RU of association phase"}, "[1]": {"biological_target": "T5, guinea pig whole molecule IgG (guinea pig)", "T5 construct": "Immobilised partner in SPR; also called Guinea Pig IgG", "experiment": "SPR; IgG amine coupled to CM5 chip, construct flowed at 750 ug/ml; end-point RU of association phase"}, "[2]": {"biological_target": "T6, rabbit whole molecule IgG (rabbit)", "T6 construct": "Immobilised partner in SPR; also called Rabbit IgG; Rabbit IgG Whole Molecule", "experiment": "SPR; IgG amine coupled to CM5 chip, construct flowed at 750 ug/ml; end-point RU of association phase"}}}
{"binder": "B1", "values": [{"measurement": "binding result", "setting": "gI-2t 262", "value": "binds"}, {"measurement": "RU Post Association", "setting": "human IgG Fc", "value": 5, "unit": "RU"}, {"measurement": "RU Post Association", "setting": "human whole molecule IgG", "value": 4, "unit": "RU"}, {"measurement": "RU Post Association", "setting": "mouse whole molecule IgG", "value": 10, "unit": "RU"}, {"measurement": "RU Post Association", "setting": "[1]", "value": 5, "unit": "RU"}, {"measurement": "RU Post Association", "setting": "[2]", "value": 11, "unit": "RU"}]}
